Data on three molecules can be found in patent US20230241258A1 (Bristol-Myers Squibb, published 2023).

In assay [1] the target is T1, human PD-L1 (human, UniProt Q9NZQ7 19-290). Put plainly: cell-based or functional assay.
The target of assay [2] is T1, human PD-L1. Put plainly: competition autoradiography on frozen tissue sections; unlabeled A02 at 0.025, 0.25, 2.5 and 25 nM displaces 0.25 nM 18F-DBCO-A02 radioligand.
In assay [3] the target is T1, human PD-L1. Put plainly: radioligand cell binding on ice for 1 hour, gamma counter. As for the experimental part:
After the incubation period, cell samples were centrifuged at 200×g and the supernatant was discarded. Cell pellets were resuspended in 1 mL PBS+0.5% BSA and the wash procedure repeated for a total of 3 washes. Following the final wash, cells were again centrifuged at 200×g and the supernatant was discarded. The radioactivity of the remaining cell pellets was then measured by gamma counter.

B1: [^18F]-radiolabeled-A02-PEG-DBCO-FPPEGA (designed binder)
chain: EVVAATPTSLLISWSYDGPIDRYYRITYGETGGNSPVQEFTVPPDQKTATISGLKPGVDYTITVYAVRLEEAHYNREFPISINYRTPC
modifications: C-terminal cysteine linked to Maleimide-PEG4-DBCO and clicked to [^18F]-FPPEGA (produced as described in Example 9)
For B1, in the assay with human PD-L1 [1], the “maximum radiotracer uptake ratio, hPD-L1(+) L2987 vs. hPD-L1(-) HT-29 xenografts” value came to 3.53 ratio; the “radiotracer uptake in PD-L1(+) L2987 xenografts relative to PD-L1(-) HT-29 xenografts, PET in mice, co-injected with 3 mg/kg unlabeled A02 Adnectin” value was 1.04 fold; the “radiotracer uptake in PD-L1(+) L2987 xenografts relative to PD-L1(-) HT-29 xenografts, PET in mice, final 10 minutes of the time-activity curve” value was found to be 3.05 fold.

B2: A02 Adnectin, cold (unlabeled) (designed binder)
chain: B1 chain
notes: also called unlabeled anti-PD-L1 A02 adnectin
In the case of B2, the binding result with human PD-L1 [2] is listed as “binds”.

B3: [^18F]-E01-4PEG-DBCO-FPPEGA (designed binder)
chain: GVSDVPRDLEVVAATPTSLLISWRAQLSPSFYYRITYGETGGNSPVQEFTVPNDVMTATISGLKPGVDYTITVYAVTTHGVYFYSPISINYRTPC
modifications: C-terminal cysteine thiol linked to Maleimide-PEG4-DBCO, which is clicked to [^18F]-FPPEGA (^18F prosthetic group)
notes: also called ^18F-radiolabeled E01-4PEG-DBCO; ^18F-E01 adnectin radiotracer
Take B3: the “fold cell associated radioactivity, PD-L1-positive L2987 cells over PD-L1-negative HT-29 cells” value with human PD-L1 [3] worked out at 44.6 fold.
